Laboratory results reported in publication PMC4449185.

Experiments:
[1] = pseudovirus neutralization, global sensitivity (≥2 of 6 non-nAbs); conditions: glycan lost
[2] = TZM-bl pseudovirus neutralization ID50; conditions: glycan lost
[3] = pseudovirus neutralization (S4 Table); conditions: glycan lost; control: JR-FL parent

ADA Env: N197D
other: neutralisation sensitivity ([1]; control: ADA parent): no change

PVO.4 Env: N197D
other: neutralisation sensitivity ([2]; control: PVO.4 parent): no change
other: neutralisation sensitivity ([1]; control: PVO.4 parent): no change

JR-FL Env (gp160∆CT): N332Q
other: neutralisation sensitivity [3]: no change

JR-CSF Env: N197D
other: neutralisation sensitivity ([2]; control: JR-CSF parent): increases
other: neutralisation sensitivity ([1]; control: JR-CSF parent): no change

JR-FL Env (gp160∆CT): N160A
other: neutralisation sensitivity [3]: no change
